This is an account of results in PMC7979924 (2021).

The target of one test is YB-1-CSD (1–180 aa.) (Homo sapiens (Human), UniProt P67809). Briefly: EMSA; in presence of ssDNA (M13, stem-loop or C20); tests mixing/cooperative co-association on nucleic acid, not direct binding. For orientation: In EMSA bound probe runs differently from free probe, usually more slowly.
The target of another test is T1, Lin28-CSD (32–136 aa.) (Homo sapiens (Human), UniProt Q9H9Z2).
T1 chain: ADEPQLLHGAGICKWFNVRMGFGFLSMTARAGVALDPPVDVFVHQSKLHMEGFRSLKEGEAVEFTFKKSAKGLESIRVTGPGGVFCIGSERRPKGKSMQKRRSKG
Nature of the test: NMR 1H-15N HSQC (peak heights); in presence of 20-nt poly(C) ssDNA; tests co-association on nucleic acid, not direct protein-protein binding.

Chain of YB-1-CSD (1–180 aa.) (P67809 1-180): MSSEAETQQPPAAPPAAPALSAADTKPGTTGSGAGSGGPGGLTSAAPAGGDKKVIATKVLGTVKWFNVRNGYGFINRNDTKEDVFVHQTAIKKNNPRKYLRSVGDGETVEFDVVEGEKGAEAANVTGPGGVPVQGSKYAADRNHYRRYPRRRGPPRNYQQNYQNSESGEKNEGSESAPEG

B1: FUS (RRM, 165–385aa.) (protein)
chain: SGGGGGGGGGGNYGQDQSSMSSGGGSGGGYGNQDQSGGGGSGGYGQQDRGGRGRGGSGGGGGGGGGGYNRSSGGYEPRGRGGGRGGRGGMGGSDRGGFNKFGGPRDQGSRHDSEQDNSDNNTIFVQGLGENVTIESVADYFKQIGIIKTNKKTGQPMINLYTDRETGKLKGEATVSFDDPPSAKAAIDWFDGKEFSGNPIKVSFATRRADFNRGGGNGRGG
With B1, in the test with YB-1-CSD (1–180 aa.), the binding result is “no binding”.

B2: TDP-43 RRM2 (176–277aa.) (protein)
chain: KLPNSKQSQDEPLRSRKVFVGRCTEDMTEDELREFFSQYGDVMDVFIPKPFRAFAFVTFADDQIAQSLCGEDLIIKGISVHISNAEPKHNSNRQLERSGRFG
Turning to B2, the binding result with Lin28-CSD (32–136 aa.) is given as “no binding”.

B3: TDP43 (RRM 1–2, 101–277aa.) (protein)
chain: QKTSDLIVLGLPWKTTEQDLKEYFSTFGEVLMVQVKKDLKTGHSKGFGFVRFTEYETQVKVMSQRHMIDGRWCDCKLPNSKQSQDEPLRSRKVFVGRCTEDMTEDELREFFSQYGDVMDVFIPKPFRAFAFVTFADDQIAQSLCGEDLIIKGISVHISNAEPKHNSNRQLERSGRFG
For the molecule B3, the binding result with YB-1-CSD (1–180 aa.) was “no binding”.
